Test results taken from patent US20050154189A1 (MAXYGEN, published 2005).
Changes are numbered by the printed parent chain. One block for each binder: values may come before it.

Target: T1, Soluble CD28-Ig (human, UniProt P10747 19-152, biotin-conjugated (NHS-biotin) in the labelled-ligand FACS assays)
T1 construct: extracellular domain; Bought from R&D Systems; also called sCD28-Ig; CD28-Ig Fc; not shown: Fc portion of human IgG1
Test: two-colour FACS profile on transfected cells; score of preference for CD28-Ig over CTLA-4-Ig vs WT hB7-1

B4: Round 2 CD28BP-8 (ligand)
chain: ITPKSVTKRVKETVMLSCDYNTSTEELTSLRIYWQKDSKMVLAILPGKVQVWPEYKNRTITDMNDNPRIVILALRLSDSGTYTCVIQKPVLKGAYKLEHLASVRLMIRADFPVPSITDIGHPAPNVKRIRCSASGGFPEPRLAWMEDGEELNAVNTTVDQDLDTELYSVSSELDSNVTNNHSIVCLIKYGELSVSQIFPWSKPKQEPPIDQLPFWVIIPVSGALVLTAVVLYCLACRHVARWKRTRRNEETVGTERLSPIYLGSAQSSG
notes: also called clone CD28BP-8
- Binding Score: 2

B9: Round 2 CD28D10-4 (ligand)
chain: SGITPKSVTKRVKETVMLSCDYNTSTEELTSLRIYWQKDSKMVLAILPGKVQVWPEYKNRTITDMNDNPRIVILALRLSDKGTYTCVVQKNENGSFRREHLTSVTLSIRADFPVPSITDIGHPAPNVKRIRCSASGGFPEPRLAWMEDGEELNAVNTTVDQDLDTELYSVSSELDFNVTNNHSIVCLIKYGELSVSQIFPWSKPKQEPPIDQLPFWVIIPVSGALVLTAVVLYCLACRHVARWKRTRRNEETVGTERLSPIYLGSAQSSG
- Binding Score: 0

B10: Round 2 CD28BP-11 (ligand)
chain: B9 chain with T24A
- Binding Score: 2

B13: Round 2 CD28A8-6 (ligand)
chain: B9 chain with L18P, N23S, K81S
- Binding Score: 1

B14: Round 2 CD28BP-17 (ligand)
chain: SGITPKSVTKRVKETVMLSCDYSTSTEELTSLRIYWQKDSKMVLAILPGKVQVWPEYKNRTFPDIINNLSLMILALRLSDKGTYTCVVQKNENGSFRREHLTSVTLSIRADFPVPSITDIGHPAPNVKRIRCSASGDFPEPRLAWMEDGEELNAVNTTVDQDLDTELYSVSSELDFNVTNNHSIVCLIKYGELSVSQIFPWSKPKQEPPIDQLPFWVIIPVSGALVLTVVVLYCLACRHVARWKRTRRNEETVGTERLSPIYLGSAQSSG
- Binding Score: 2

B18: Round 1 CD28BP-71 (ligand)
chain: ITPKSVTKRVKETVMLSCDYNTSTEELTSLRIYWQKDSKMVLAILPGKVQVWPEYKNRTITDMNDNPRIVILALRLSDSGTYTCVIQKPVLKGAYKLEHLASVRLMIRADFPVPTINDLGNPSPNIRRLICSTSGGFPRPHLYWLENGEELNATNTTLSQDPETKLYMISSELDFNMTSNHSFLCLVKYGDLTVSQTFYWQESKPTPSANQHLTWTIIIPVSAFGISVIIAVILTCLTCRNAAIRRQRRENEVEMQSCSQSP
notes: also called R1clone71; Clone 71
- Binding Score: 1

B20: Round 2 CD28B4-3 (ligand)
chain: B18 chain with A101T
- Binding Score: 1

B21: Round 2 CD28B6-3 (ligand)
chain: B18 chain with V90D, A101T, E254K
- Binding Score: 1

B25: Round 2 CD28B6-6 (ligand)
chain: ITPKSVTKRVKETVMLSCDYSTSTEELTSLRIYWQKDSKMVLAILPGKVQVWPEYKNRTITDMNDNPRIVILALRLSDKGTYTCVIQKPVLKGAYKLEHLTSVTLSIRADFPVPSITDIGHPAPNVKRIRCSASGGFPEPRLAWMEDGEELNAVNTTVDQDLDTELYSVSSELDFNATNNHSIVCLIKYGELSVSQIFPWSKPKQEPPIDQLPFWVIVPVSGALVLTAVVLYCLACRHVAR
- Binding Score: 1

B26: Round 2 CD28C2-4 (ligand)
chain: GISQVTKSVKEMAALSCDYNISIDELARMRIYWQKDQQMVLSIISGQVEVWPEYKNRTITDMNDNPRIVILALRLSDSGTYTCVIQKPVLKGAYKPEHLASVRLMIRADFPVPTINDLGNPSPNIRRLICSTSGGFPRPHLYWLENGEELNATNTTLSQDPETKLYMISSELDFNMTSNHSFLCLVKYGDLTVSQTFYWQESKPTPSANQHLTWTIIIPVSAFGISVIIAVILTCLTCRNAAIRRQRRENEVEMQSCSQSP
- Binding Score: 1

B27: Round 2 CD28BP-14 (ligand)
chain: GISQVTKSVKEMAALSCDYNISIDELARMRIYWQKDQQMVLSIISGQVEVWPEYKNRTITDMNDNPRIVILALRLSDSGTYTCVIQKPVLKGAYKLEHLASVRLMIRADFPVPTINDLGNPSPNIRRLICSTSGGFPRPHLYWLENGEELNATNTTVSQDPGTELYMISSELDFNVTNNHSIVCLIKYGELSVSQIFPWSKPKQEPPIDQLPFWVIIPVSGALVLTAVVLYCLACRHVARWKRTRRNEETVGTERLSPIYLGSAQSSG
- Binding Score: 2

The remaining lines, values ahead:

- Binding Score: 1
B1: Round 2 CD28D2-3 (ligand)
chain: ITPKSVTKRVKETVMLSCDYNTSTEELTSLRIYWQKDSKMVLAILPGKVQVWPEYKNRTITDMNDNPRIVIQALRLSDSGTYTCVIQKPVLKGAYKLEHLASVRLMIRADFPVPTDLGNPSPNIRRLICSTSGGFPRPHLYWLENGEELNATNTTVSQDPGTELYMISSELDFNVTNNHSIVCLIKYGELSVSQIFPWSKPKQEPPIDQLPFWVIIPVSGALVLTAVVLYCLACRHVARWKRTRRNEETVGTERLSPIYLGSAQSSG

- Binding Score: 1
B2: Round 2 CD28H6-6 (ligand)
chain: ITPKSVTKRVKETVMLSCDYSTSTEELTSLRIYWQKDSKMVLAILPGKVQVWPEYKNRTITDMNDNPRIVILALRLSDSGTYTCVIQKPVLKGAYKLEHLASVRLMIRADFPVPTINDLGNPSPNIRRLICSGFPRPHLYWLENGEELNATNTTVSQDPGTELYMISSELDFNVTNNHSIVCLIKYGELSVSQIFPWSKPKQEPPIDQLPFWVIIPVSGALVLTAVVLYCLACRHVARWKRTRRNEETVGTERLSPIYLGSAQSSG

- Binding Score: 2
B3: Round 2 CD28D12-5 (ligand)
chain: ITPKSVTKRVKETVMLSCDYSTSTEELTSLRIYWQKDSKMVLAILPGKVQVWPEYKNRTITDMNDNPRIVILALRLSDSGTYTCVIQKPVLKGAYKLEHLASVRLMIRADFPVPSITDIGHPAPNVKRIRCSASGDFPEPRLAWMEDGEELNAVNTTVLDTELYSVSSELDFNVTNNHSIVCLIKYGELSVSQIFPWSKPKQEPPIDQLPFWVIIPVSGALVLTAVVLYCLACRHVARWKRTRRNEETVGTERLSPIYLGSAQPSG

- Binding Score: 1
B5: Round 2 CD28F10-2 (ligand)
chain: B4 chain with V90D, A101T, G136D, S175F

- Binding Score: 1
B6: Round 2 CD28C7-3 (ligand)
chain: B4 chain with N21S, V90D, A101T, G136D, S175F

- Binding Score: 1
B7: Round 2 CD28F12-5* (ligand)
chain: B4 chain with V90D, G136D, S175F

- Binding Score: 1
B8: Round 2 CD28G1-9 (ligand)
chain: B4 chain with A101T, S175F

- Binding Score: 0
B11: Round 2 CD28F3-5 (ligand)
chain: B9 chain with K81S

- Binding Score: 1
B12: Round 2 CD28G1-5 (ligand)
chain: B14 chain with P115S, D137G, V229A

- Binding Score: 1
B15: Round 2 CD28G2-8 (ligand)
chain: ITPKSVTKRVKETVMLSCDYNTSTEELTSLRIYWQKDSKMVLAILPGKVQVWPEYKNRTITDMNDNPRIVILALRLSDSGTYTCVIQKPVLKGAYKLEHLASVRLMIRADFPVPSINDLGNPSPNIRRLICSTSGGFPRPHLYWLENGEELNATNTTVSQDPGTELYMISSELDFNVTNNHSIVCLIKYGELSVSQIFPWSKPKQEPPIDQLPFWVIIPVSGALVLTAVVLYCLACRHVARWKRTRRNEETVGTERLSPIYLGSAQSSG

- Binding Score: 1
B16: Round 2 CD28H11-3 (ligand)
chain: B15 chain with S115T, V158L, G163E, E165K, V229A

- Binding Score: 2
B17: Round 2 CD28D11-1 (ligand)
chain: ITPKSVTKRVKETVMLSCDYNTSTEELTSLRIYWQKDSKMVLAILPGKVQVWPEYKNRTITDMNDNPRIVILALRLSDSGTYTCVVQKNENGSFRREHLTSVTLSIRADFPVPSITDIGHPAPNVKRIRCSASGDFPEPRLAWMEDGEELNAVNTTVDQDLDTELYSVSSELDFNVTNNHSIVCLIKYGELSVSQIFPWSKPKQEPPIDQLPFWVIILVSGALVLTAVVLYCLACRHVARWKRTRRNEETVGTERLSPIYLGSAQSSG

- Binding Score: 0
B19: Round 2 CD28F3-1 (ligand)
chain: B18 chain with V90D, A101T, E149K

- Binding Score: 0
B22: Round 2 CD28E2-5* (ligand)
chain: B18 chain with I1T, L76P

- Binding Score: 0
B23: Round 2 CD28D5-6 (ligand)
chain: B18 chain with N21S, A101T, T197S

- Binding Score: 0
B24: Round 2 CD28E8-6 (ligand)
chain: B18 chain with A101T, L158V, M177T
